Experimental data: PMC2714321, “DNA binding kinetics of two response regulators, PlnC and PlnD, from the bacteriocin regulon of Lactobacillus plantarum C11”

T1: f-PlnC (Lactobacillus plantarum C11, UniProt Q48829 1-247)
T1 sequence: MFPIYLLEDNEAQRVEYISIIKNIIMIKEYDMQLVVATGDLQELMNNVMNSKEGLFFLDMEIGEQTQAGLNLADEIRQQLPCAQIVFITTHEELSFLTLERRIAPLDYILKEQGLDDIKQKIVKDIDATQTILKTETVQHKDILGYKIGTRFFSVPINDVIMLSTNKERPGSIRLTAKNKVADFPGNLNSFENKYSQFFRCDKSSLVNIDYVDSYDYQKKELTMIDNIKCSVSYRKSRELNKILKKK

T2: f-PlnD (Lactobacillus plantarum C11, UniProt Q48830 1-247)
T2 sequence: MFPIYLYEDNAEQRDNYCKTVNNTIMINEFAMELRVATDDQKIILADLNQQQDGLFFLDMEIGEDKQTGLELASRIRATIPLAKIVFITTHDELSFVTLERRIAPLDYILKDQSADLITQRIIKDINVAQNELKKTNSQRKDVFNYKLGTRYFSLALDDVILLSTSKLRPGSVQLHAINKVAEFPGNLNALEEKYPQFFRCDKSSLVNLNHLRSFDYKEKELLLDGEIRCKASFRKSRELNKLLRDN


Columns and labels:
Conditions in all cases: protein: native; tags: N-terminal FLAG; chain copies: 2; label: biotin on forward strand; blunt
f-PlnC [1] = target: T1, f-PlnC; test: SPR; single site, Langmuir 1:1 model; SPR (Biacore 3000, SA chip): 20 mM Tris-HCl pH 8.0, 100 mM NaCl, 5 mM MgCl2, 1 mM EDTA, 0.025% Triton X-100, 25°C; signals corrected by subtraction of control DNA (S8/rc) reference cell, no outcome reported for it
f-PlnC [2] = target: T1, f-PlnC; test: SPR; site 1 (KD1), heterogeneous ligand model; SPR (Biacore 3000, SA chip): 20 mM Tris-HCl pH 8.0, 100 mM NaCl, 5 mM MgCl2, 1 mM EDTA, 0.025% Triton X-100, 25°C; signals corrected by subtraction of control DNA (S8/rc) reference cell, no outcome reported for it
f-PlnD = target: T2, f-PlnD; test: as above
f-PlnC [3] = target: T1, f-PlnC; test: SPR; site 1 (KD1), heterogeneous ligand model; Discussion gives 1e-7 range; SPR (Biacore 3000, SA chip): 20 mM Tris-HCl pH 8.0, 100 mM NaCl, 5 mM MgCl2, 1 mM EDTA, 0.025% Triton X-100, 25°C; signals corrected by subtraction of control DNA (S8/rc) reference cell, no outcome reported for it
f-PlnC [4] = target: T1, f-PlnC; test: SPR; site 1 (KD1), ka fitted locally; SPR (Biacore 3000, SA chip): 20 mM Tris-HCl pH 8.0, 100 mM NaCl, 5 mM MgCl2, 1 mM EDTA, 0.025% Triton X-100, 25°C; signals corrected by subtraction of control DNA (S8/rc) reference cell, no outcome reported for it

Binder	Kd (f-PlnC [2]) [µM]	Kd (f-PlnD) [µM]	further results
PplnAΔL (dsDNA) DNA 1: CATGGTGATTTTAAAATTTATTTAAAAAATGTACGTTAATAGAAATAATT DNA 2: AATTATTTCTATTAACGTACATTTTTTAAATAAATTTTAAAATCACCATG			Kd (f-PlnC [1]): 0.3 µM
PplnM (dsDNA) DNA 1: TGAATTATTGTACGATAATATCTAAAAATATTACGTTTATAAAAATATCG DNA 2: CGATATTTTTATAAACGTAATATTTTTAGATATTATCGTACAATAATTCA	0.38	0.56	
PplnA (dsDNA) DNA 1: CATGGTGATTCACGTTTAAATTTAAAAAATGTACGTTAATAGAAATAATT DNA 2: AATTATTTCTATTAACGTACATTTTTTAAATTTAAACGTGAATCACCATG		1.5	Kd (f-PlnC [3]): 1.5 µM
PplnJ (dsDNA) DNA 1: ACTTTCAAGTTACGTTAAATCGATTAAATAGTACGATAACAAATTTAAAA DNA 2: TTTTAAATTTGTTATCGTACTATTTAATCGATTTAACGTAACTTGAAAGT		12	
PplnE (dsDNA) DNA 1: ATTGGTATTTGACGTTAAGAGAACGTTTTTTTACTTTTATAATTTTTTCA DNA 2: TGAAAAAATTATAAAAGTAAAAAAACGTTCTCTTAACGTCAAATACCAAT	0.21		
PplnG (dsDNA) DNA 1: GCCTGATGAGGACATTTATCATAAAATTATGTACGTTAATAGATAGTTGG DNA 2: CCAACTATCTATTAACGTACATAATTTTATGATAAATGTCCTCATCAGGC		14	Kd (f-PlnC [4]): 0.17 µM
